Columns and labels:
[1] = target: the molecule itself; assay: crystal structure; SgrAI with self-complementary 17-mer cognate DNA (1:2 SgrAI dimer:DNA duplex) and Ca2+; 14% PEG 4K, 0.1 M imidazole pH 6.5, 0.15 M NaCl, 0.05 M CaCl2, 17°C; two DNA bound dimers form a domain swapped tetramer (N counts subunits)
SgrAI P27G = target: T1, SgrAI P27G (UniProt Q9F6L0 1-339, P27G); assay: fluorescence polarization anisotropy; 10 mM Ca2+; FPA: 20 mM Tris-OAc pH 8.0, 50 mM KOAc, 10 mM Ca(OAc)2, 1 mM DTT, 10% glycerol, 4 C, 1 nM DNA; native PAGE: same binding buffer, 1 uM SgrAI, 30 min at 4 C, gel; conditions: protein: recombinant, chain copies: 2
T1 sequence: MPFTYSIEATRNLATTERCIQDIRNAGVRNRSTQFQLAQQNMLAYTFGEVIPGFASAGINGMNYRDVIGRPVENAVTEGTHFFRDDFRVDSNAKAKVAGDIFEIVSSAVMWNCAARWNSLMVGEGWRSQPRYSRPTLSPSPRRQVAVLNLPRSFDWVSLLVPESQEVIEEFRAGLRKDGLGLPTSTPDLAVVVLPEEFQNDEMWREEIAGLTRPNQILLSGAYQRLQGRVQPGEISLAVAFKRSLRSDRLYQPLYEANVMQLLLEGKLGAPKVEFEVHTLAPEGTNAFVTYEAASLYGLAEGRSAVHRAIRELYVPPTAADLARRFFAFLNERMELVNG

SgrAI P27W = target: T2, SgrAI P27W (UniProt Q9F6L0 1-339, P27W); assay: as above; conditions: protein: recombinant, chain copies: 2
T2 sequence: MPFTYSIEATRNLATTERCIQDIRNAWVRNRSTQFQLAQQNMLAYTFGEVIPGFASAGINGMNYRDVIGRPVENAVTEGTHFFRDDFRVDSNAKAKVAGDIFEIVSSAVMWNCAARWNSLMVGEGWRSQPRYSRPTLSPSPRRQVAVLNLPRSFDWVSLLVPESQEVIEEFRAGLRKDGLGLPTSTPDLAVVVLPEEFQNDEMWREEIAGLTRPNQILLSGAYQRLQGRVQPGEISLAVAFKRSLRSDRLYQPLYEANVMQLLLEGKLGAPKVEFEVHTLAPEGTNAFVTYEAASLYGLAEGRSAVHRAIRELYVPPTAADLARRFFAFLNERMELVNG

SgrAI wild type = target: T3, SgrAI wild type (UniProt Q9F6L0 1-339); assay: X-ray crystal structure, 2.03 A; 50 mM CaCl2; two Ca2+ per active site; domain-swapped tetramer with two duplexes; FPA: 20 mM Tris-OAc pH 8.0, 50 mM KOAc, 10 mM Ca(OAc)2, 1 mM DTT, 10% glycerol, 4 C, 1 nM DNA; native PAGE: same binding buffer, 1 uM SgrAI, 30 min at 4 C, gel; conditions: protein: recombinant; chain copies: 2; 5' overhang 1 nt (A) at each end; self-complementary, 2 strand copies
T3 sequence: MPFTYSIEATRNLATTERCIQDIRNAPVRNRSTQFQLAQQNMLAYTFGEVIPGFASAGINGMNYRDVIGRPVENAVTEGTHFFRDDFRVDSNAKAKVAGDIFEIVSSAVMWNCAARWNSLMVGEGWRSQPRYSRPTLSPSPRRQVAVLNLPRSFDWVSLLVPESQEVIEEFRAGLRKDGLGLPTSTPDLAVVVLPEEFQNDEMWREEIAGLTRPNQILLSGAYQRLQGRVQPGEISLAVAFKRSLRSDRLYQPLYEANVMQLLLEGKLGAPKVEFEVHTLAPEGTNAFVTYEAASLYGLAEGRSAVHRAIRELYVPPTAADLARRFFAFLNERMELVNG

[2] = label: 5' HEX on both strands (FPA), 5' 32P (native gel), blunt, self-complementary, 2 strand copies
[3] = label: 5' FLO on top strand only

B1: SgrAI restriction endonuclease, wild type (enzyme, Streptomyces griseus)
chain: PFTYSIEATRNLATTERCIQDIRNAPVRNRSTQFQLAQQNMLAYTFGEVIPGFASAGINGMNYRDVIGRPVENAVTEGTHFFRDDFRVDSNAKAKVAGDIFEIVSSAVMWNCAARWNSLMVGEGWRSQPRYSRPTLSPSPRRQVAVLNLPRSFDWVSLLVPESQEVIEEFRAGLRKDGLGLPTSTPDLAVVVLPEEFQNDEMWREEIAGLTRPNQILLSGAYQRLQGRVQPGEISLAVAFKRSLRSDRLYQPLYEANVMQLLLEGKLGAPKVEFEVHTLAPEGTNAFVTYEAASLYGLAEGRSAVHRAIRELYVPPTAADLARRFFAFLNERMELVNG
notes: the structure legends name residues 1-24 (swapping domain), 25-30 (hinge loop) and 31-339; residues 1-339 are named for the structure; also called WT SgrAI; wild type SgrAI dimer
[1]
  stoichiometry N: 4

B2: 18-1 (primary site) (dsDNA)
DNA 1: AAGTCCACCGGTGGACTT
DNA 2: AAGTCCACCGGTGGACTT
SgrAI P27G; [2]
  Kd: 17 ± 5 nM
SgrAI P27W; [2]
  Kd: 4 ± 0.8 nM

B3: PCP (precleaved primary site DNA) (dsDNA)
DNA 1: GATGCGTGGGTCTTCACA
DNA 2: CCGGTGTGAAGACCCACGCATC
modifications: 5' phosphate at the cleavage site
SgrAI P27G; [3]
  Kd: 5 ± 2 nM
SgrAI P27W; [3]
  Kd: 9 ± 2 nM

B4: 17-2 cognate (crystal DNA) (dsDNA)
DNA 1: AAGTCCACCGGTGGACT
DNA 2: AAGTCCACCGGTGGACT
SgrAI wild type
  binding result: binds
